Measurements as given in paper PMC2192373.

Target: Taxol-stabilized microtubules prepared from pure bovine tubulin (bovine) (UniProt Q6B856)
Assay: co-sedimentation

## GST-DmINCENP (full-length Drosophila inner centromere protein fused to GST) (natural protein)
  percent of the added protein that cosediments: 64%
